Where a chain is given by its changes, count along the chain named.

The target of the experiment is T1, BSA (bovine, UniProt P02769 25-607).
T1 construct: also called BSA control protein; bovine serum albumin
As to the kind of experiment: ELISA, intact IgG on coated BSA. Background: An ELISA detects its analyte on a solid surface through an enzyme-linked reagent.

T1 sequence (P02769 25-607 limits assumed): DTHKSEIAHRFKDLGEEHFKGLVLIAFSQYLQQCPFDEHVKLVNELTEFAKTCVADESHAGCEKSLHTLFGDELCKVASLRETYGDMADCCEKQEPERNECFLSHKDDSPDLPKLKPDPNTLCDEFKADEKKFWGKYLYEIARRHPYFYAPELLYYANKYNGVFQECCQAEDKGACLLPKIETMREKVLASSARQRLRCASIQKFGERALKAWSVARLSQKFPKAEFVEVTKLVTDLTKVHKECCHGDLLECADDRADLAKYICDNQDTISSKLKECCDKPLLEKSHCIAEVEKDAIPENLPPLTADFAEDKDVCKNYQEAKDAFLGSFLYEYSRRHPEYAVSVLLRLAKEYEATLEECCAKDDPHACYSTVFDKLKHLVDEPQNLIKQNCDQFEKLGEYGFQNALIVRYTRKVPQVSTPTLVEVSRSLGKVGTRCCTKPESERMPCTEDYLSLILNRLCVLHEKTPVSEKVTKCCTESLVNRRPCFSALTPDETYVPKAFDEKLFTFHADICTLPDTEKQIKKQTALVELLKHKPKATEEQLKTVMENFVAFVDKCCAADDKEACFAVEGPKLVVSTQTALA

B1: 3rd humanized MC41 IgG (antibody, V domains shown)
VH: QVQLKESGPGLVAPSKTLSLTCTVSGFSLSSQGVYWIRQPPGKGLEWIGAIWAGGSTNYNSALMSRLSISKDNSKSQVFLKMNSLQTDDTAMYYCARVDGYRGYNMDYWGQGTSVTVSS
VL: ENVLTQSPAIMSATPGEKVTMTCSASSSVSYMHWYQQKSSTSPKLWIYDTSKLASGVPGRFSGSGSGNSYTLTISSMEAEDVATYYCFQGSGYPLTFGAGTKLEIKR
notes: also called 3rd-hMC41
As to B1, the binding result is given as “no binding”.

B2: 2nd humanized MC41 IgG (antibody, V domains shown)
VH: B1 VH with S114L
VL: B1 VL with M32L
notes: also called hMC41; humanized 2nd IgG
For the molecule B2, the binding result was “no binding”.

B3: chimeric MC41 (antibody, V domains shown)
VH: B1 VH with T17S, L20I, I37V, I48L
VL: B1 VL with T14S, T71S, I105L
notes: Chimeric intact IgG of murine MC41; also called chMC41
In the case of B3, the binding result is listed as “no binding”.

For the origin of these results see patent publication EP3250590B1 (Academia Sinica, dated 2021).
